In US20100285526:

Columns and labels:
[1] = test system: GST-IL11(A) fusion protein [GST: P08515]
[2] = test system: GST-IL11(LV-) fusion protein [GST: P08515]
[3] = test system: GST-IL6 fusion protein [GST: P08515]
[4] = test system: GST-Thymosin β4 fusion protein [GST: P08515]
[5] = test system: T1, His-IL11 fusion protein
T1 sequence: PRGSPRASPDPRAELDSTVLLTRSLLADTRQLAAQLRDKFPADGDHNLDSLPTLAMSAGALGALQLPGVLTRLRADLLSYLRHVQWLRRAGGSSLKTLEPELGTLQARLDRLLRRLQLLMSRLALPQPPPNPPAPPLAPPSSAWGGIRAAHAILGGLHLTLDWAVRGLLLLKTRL

[6] = test system: MBP-IL11 fusion protein [MBP: P0AEX9]

Substance | thrombin cleavage of the fusion protein, SDS-PAGE time course [1] | choice of cleavage site within the linker [1] | integrity of released IL-11, MALDI-TOF/MS [1] | thrombin cleavage of the fusion protein, SDS-PAGE time course [2] | thrombin cleavage of the fusion protein, SDS-PAGE time course [3] | integrity of released thymosin β4, MALDI-TOF/MS [4] | thrombin cleavage of the fusion protein, SDS-PAGE time course [4] | thrombin cleavage of the fusion protein, SDS-PAGE time course [5] | thrombin cleavage of the fusion protein, SDS-PAGE time course [6]
bovine thrombin | The GST fusion partner was efficiently cleaved by both bovine and human thrombin in the concentration ranges and the time points tested | – | – | – | – | – | – | – | –
human thrombin | The GST fusion partner was efficiently cleaved by both bovine and human thrombin in the concentration ranges and the time points tested | – | – | – | – | – | – | – | –
thrombin (species not stated) | – | thrombin cleavage occurs not at Arg↓Gly but at Arg↓Ala | it was confirmed that intact IL-11 protein was generated after thrombin cleavage of GST-IL11(A) | The fusion protein GST-IL11(LV-) (44 kDa) gradually disappeared, and the amount of IL-11(LV-) (18 kDa) increased as reaction time passed | The fusion protein GST-IL6 (46 kDa) gradually disappeared, and the amount of IL-6 (22 kDa) increased as reaction time passed | it was confirmed that intact thymosin β4 protein was generated after thrombin cleavage of GST-Thymosin β4 | The fusion protein GST-Thymosin β4 (31 kDa) gradually disappeared, and the amount of thymosin β4 (5 kDa) increased as reaction time passed | The fusion protein His-IL11 (22 kDa) gradually disappeared, and the amount of IL11 (18 kDa) increased as reaction time passed | The fusion protein MBP-IL11 (60 kDa) gradually disappeared, and the amount of IL11 (18 kDa) increased as reaction time passed
